These results are taken from patent publication US20050245438A1 (SALK INSTITUTE FOR BIOLOGICAL STUDIES, published 2005).

Numbered stars: 1 amine (or outer) side, 2 acyl side, 3 side chain; on linkers, the order of the positions; unused ones are H or OH. Bridge positions count the residues as written; N and C are the ends. Square brackets hold non-standard residues; d marks the D form. Ends that are not written are not given here. * marks the point of attachment. (2S,3R)βMe2Nal = L-threo-(2S,3R)-β-methyl-2-naphthylalanine, (2S,3R)-2-amino-3-(naphthalen-2-yl)butanoic acid, C[C@H](c1ccc2ccccc2c1)[C@H](N[*:1])C(=O)[*:2]; threo‑(2S,3R)CβMe‑2Nal = threo-(2S,3R)-β-methyl-2-naphthylalanine (L-threo), C[C@H](c1ccc2ccccc2c1)[C@H](N[*:1])C(=O)[*:2]; Phe(4-CH2NH2) = NCc1ccc(C[C@H](N)C(=O)O)cc1; Tyr(127I) = tyrosine iodinated with ^127I; Phe(4-NH2) = Nc1ccc(C[C@H](N)C(=O)O)cc1; 2Nal = N[C@@H](Cc1ccc2ccccc2c1)C(=O)O; Carbamoyl = NC(=O)*

The chains are these.
B1: Peptide No. 13 iodinated with ^127I (peptide)
peptide: [Tyr(127I)]CFAWKTFC
modifications: disulfide 2-9
notes: also called Peptide No. 13A; the I-Tyr^2 analog
B2: (cyclo)Cbm-Tyr-Cys-Phe-Ala-Trp-Lys-Thr-Phe-Cys-OH (peptide)
peptide: Carbamoyl-YCFAWKTFC-OH
modifications: disulfide 2-9
notes: synthetic cyclic nonapeptide; also called Peptide No. 13B
B3: (cyclo)H-Cys-Phe-4Aph-D-Trp-Lys-Thr-Phe-Cys-OH (peptide)
peptide: H-CF[Phe(4-NH2)][dW]KTFC-OH
modifications: disulfide 1-8
notes: synthetic cyclic octapeptide; also called Peptide No. 2
B4: (cyclo)Cbm-Tyr-Cys-Phe-Amp-Trp-Lys-Thr-Phe-Cys-OH (peptide)
peptide: Carbamoyl-YCF[Phe(4-CH2NH2)]WKTFC-OH
modifications: disulfide 2-9
notes: synthetic cyclic nonapeptide; also called Peptide No. 15A
B5: (cyclo)H-D-Cys-Phe-Tyr-threo-(2S,3R)C^βMe-2Nal-Lys-Thr-Phe-Cys-OH (peptide)
peptide: H-[dC]FY[(2S,3R)βMe2Nal]KTFC-OH
modifications: disulfide 1-8
SMILES: C[C@H](c1ccc2ccccc2c1)[C@@H]1NC(=O)[C@H](Cc2ccc(O)cc2)NC(=O)[C@H](Cc2ccccc2)NC(=O)[C@H](N)CSSC[C@@H](C(=O)O)NC(=O)[C@H](Cc2ccccc2)NC(=O)[C@H]([C@@H](C)O)NC(=O)[C@H](CCCCN)NC1=O
notes: also called Peptide No. 16A; Peptide 16A
B6: des-AA^1,2,4,5,12,13-[Ala^7]SRIF, (cyclo)H-Cys-Phe-Ala-Trp-Lys-Thr-Phe-Cys-OH (peptide)
peptide: H-CFAWKTFC-OH
modifications: disulfide 1-8
SMILES: C[C@@H]1NC(=O)[C@H](Cc2ccccc2)NC(=O)[C@@H](N)CSSC[C@@H](C(=O)O)NC(=O)[C@H](Cc2ccccc2)NC(=O)[C@H]([C@@H](C)O)NC(=O)[C@H](CCCCN)NC(=O)[C@H](Cc2c[nH]c3ccccc23)NC1=O
notes: synthetic cyclic octapeptide; also called Peptide No. 12
B7: (cyclo)H-Cys-Phe-4Aph-2Nal-Lys-Thr-Phe-Cys-OH (peptide)
peptide: H-CF[Phe(4-NH2)][2Nal]KTFC-OH
modifications: disulfide 1-8
SMILES: C[C@@H](O)[C@@H]1NC(=O)[C@H](CCCCN)NC(=O)[C@H](Cc2ccc3ccccc3c2)NC(=O)[C@H](Cc2ccc(N)cc2)NC(=O)[C@H](Cc2ccccc2)NC(=O)[C@@H](N)CSSC[C@@H](C(=O)O)NC(=O)[C@H](Cc2ccccc2)NC1=O
notes: synthetic cyclic octapeptide; also called Peptide 5; Peptide No. 5
B8: (cyclo)H-Tyr-Cys-Phe-Ala-D-Trp-Lys-Thr-Phe-Cys-OH (peptide)
peptide: H-YCFA[dW]KTFC-OH
modifications: disulfide 2-9
notes: synthetic cyclic nonapeptide; also called Peptide No. 14
B9: des-AA^1,2,4,5,12,13[4Aph^7]-SRIF, (cyclo)H-Cys-Phe-4Aph-Trp-Lys-Thr-Phe-Cys-OH (peptide)
peptide: H-CF[Phe(4-NH2)]WKTFC-OH
modifications: disulfide 1-8
notes: synthetic cyclic octapeptide, free N-terminus and free acid C-terminus; also called Peptide No. 1
B10: (cyclo)Cbm-Cys-Phe-4Aph-D-Trp-Lys-Thr-Tyr-Cys-OH (peptide)
peptide: Carbamoyl-CF[Phe(4-NH2)][dW]KTYC-OH
modifications: disulfide 1-8
notes: synthetic cyclic octapeptide; also called Peptide No. 10A
B11: (cyclo)Cbm-Cys-Phe-4Aph-Trp-Lys-Thr-Tyr-Cys-OH (peptide)
peptide: Carbamoyl-CF[Phe(4-NH2)]WKTYC-OH
modifications: disulfide 1-8
notes: synthetic cyclic octapeptide; also called Peptide No. 10
B12: (cyclo)H-Cys-Phe-4Aph-Trp-Lys-Thr-Tyr-Cys-OH (peptide)
peptide: H-CF[Phe(4-NH2)]WKTYC-OH
modifications: disulfide 1-8
notes: synthetic cyclic octapeptide; also called Peptide 9; Peptide No. 9
B13: (cyclo)H-Cys-Phe-Tyr-threo-(2S,3R)C^βMe-2Nal-Lys-Thr-Phe-Cys-OH (peptide)
peptide: H-CFY[threo‑(2S,3R)CβMe‑2Nal]KTFC-OH
modifications: disulfide 1-8
SMILES: C[C@H](c1ccc2ccccc2c1)[C@@H]1NC(=O)[C@H](Cc2ccc(O)cc2)NC(=O)[C@H](Cc2ccccc2)NC(=O)[C@@H](N)CSSC[C@@H](C(=O)O)NC(=O)[C@H](Cc2ccccc2)NC(=O)[C@H]([C@@H](C)O)NC(=O)[C@H](CCCCN)NC1=O
notes: later-eluting isomer, determined to incorporate the L-threo-β-Me-2Nal residue; also called Peptide No. 17A; 17a
B14: (cyclo)H-Tyr-Cys-Phe-Ala-Trp-Lys-Thr-Phe-Cys-OH (peptide)
peptide: H-YCFAWKTFC-OH
modifications: disulfide 2-9
notes: synthetic cyclic nonapeptide; also called Peptide No. 13
B15: (cyclo)H-Cys-Phe-Ala-D-Trp-Lys-Thr-Phe-Cys-OH (peptide)
peptide: H-CFA[dW]KTFC-OH
modifications: disulfide 1-8
SMILES: C[C@@H]1NC(=O)[C@H](Cc2ccccc2)NC(=O)[C@@H](N)CSSC[C@@H](C(=O)O)NC(=O)[C@H](Cc2ccccc2)NC(=O)[C@H]([C@@H](C)O)NC(=O)[C@H](CCCCN)NC(=O)[C@@H](Cc2c[nH]c3ccccc23)NC1=O
notes: synthetic cyclic octapeptide; also called Peptide 11; Peptide No. 11
B16: (cyclo)H-Cys-Phe-Ala-Trp-Lys-Thr-Ala-Cys-OH (peptide)
peptide: H-CFAWKTAC-OH
modifications: disulfide 1-8
notes: synthetic cyclic octapeptide; also called Peptide 12A; Peptide No. 12A
B17: (cyclo)Cys-Phe-Ala-D-Trp-Lys-Thr-Ala-Cys-OH (peptide)
peptide: CFA[dW]KTAC-OH
modifications: disulfide 1-8
notes: synthetic cyclic octapeptide; also called Peptide No. 12B
B18: (cyclo)Cbm-Tyr-Cys-Phe-4Aph-Trp-Lys-Thr-Phe-Cys-OH (peptide)
peptide: Carbamoyl-YCF[Phe(4-NH2)]WKTFC-OH
modifications: disulfide 2-9
notes: synthetic cyclic nonapeptide; also called Peptide No. 8
B19: (cyclo)H-Tyr-Cys-Phe-4 Amp-Trp-Lys-Thr-Phe-Cys-OH (peptide)
peptide: H-YCF[Phe(4-CH2NH2)]WKTFC-OH
modifications: disulfide 2-9
notes: here position 7 is 4Amp; also called Peptide 15; Peptide No. 15
B20: (cyclo)H-Tyr-Cys-Phe-4Aph-Trp-Lys-Thr-Phe-Cys-OH (peptide)
peptide: H-YCF[Phe(4-NH2)]WKTFC-OH
modifications: disulfide 2-9
notes: synthetic cyclic nonapeptide; also called Peptide No. 6
B21: (cyclo)Cbm-Cys-Phe-4Aph-Trp-Lys-Thr-Phe-Cys-OH (peptide)
peptide: Carbamoyl-CF[Phe(4-NH2)]WKTFC-OH
modifications: disulfide 1-8
notes: synthetic cyclic octapeptide; also called Peptide No. 3
B22: (cyclo)H-Tyr-Cys-Phe-4Aph-D-Trp-Lys-Thr-Phe-Cys-OH (peptide)
peptide: H-YCF[Phe(4-NH2)][dW]KTFC-OH
modifications: disulfide 2-9
notes: synthetic cyclic nonapeptide; also called Peptide No. 7

The target of one assay is T1, cloned human SRIF receptor SSTR4 (human, UniProt P31391 1-388).
T1 construct: whole, on cells; assayed as cryostat sections of membrane pellets of the transfected cells; also called hSSTR4
T1 sequence (P31391 whole entry): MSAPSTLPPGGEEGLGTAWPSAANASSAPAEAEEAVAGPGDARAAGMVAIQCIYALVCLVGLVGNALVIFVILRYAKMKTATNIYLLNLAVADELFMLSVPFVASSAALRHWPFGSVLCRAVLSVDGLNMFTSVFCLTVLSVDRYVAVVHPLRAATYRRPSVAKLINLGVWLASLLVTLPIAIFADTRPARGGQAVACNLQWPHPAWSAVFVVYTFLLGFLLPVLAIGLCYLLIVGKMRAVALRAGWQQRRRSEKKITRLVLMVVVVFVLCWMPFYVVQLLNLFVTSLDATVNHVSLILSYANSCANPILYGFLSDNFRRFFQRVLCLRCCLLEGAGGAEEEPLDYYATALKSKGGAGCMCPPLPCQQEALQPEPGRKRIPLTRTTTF
Description: radioligand displacement (125I-[Leu8,D-Trp22,Tyr25]SRIF-28), membrane pellet sections. As to the method: (§1) Cells are washed twice with and scraped into ice-cold 0.05 M Tris-HCl (pH 7.4), collected by centrifugation, and homogenized using a rotor/stator/system in the same buffer. After centrifugation at 120 g for 5 min at 4° C., the supernatant is collected and centrifuged again at 48,000 g for 30 min at 4° C. The resulting pellet is resuspended in ice-cold Tris buffer, transferred into a microfuge tube, and centrifuged at 20,000 g for 15 min at 4° C. After withdrawal of the supernatant, the membrane pellet is stored at −80° C.
(§2) Receptor autoradiography is performed on 20 μm thick cryostat sections of the membrane pellets, mounted on microscope slides, and then stored at −20° C. […] Increasing concentrations of the unlabeled peptide are used ranging from 0.1-1000 nM. Unlabeled somatostatin-28 is run in parallel using the same increasing concentrations, as a control. IC₅₀ values are calculated after quantification of the data using a computer-assisted image processing system as known in this art.
In the case of B1, the IC50 (commonly the concentration needed to halve the response being measured) was 3.5 nM.
Consider B2, for which the IC50 came out at 2.36 nM.
The molecule B3 returned an IC50 of 0.88 nM.
B4: the IC50 came out at 3.2 nM.
Molecule B5 gave an IC50 of 3.5 nM.
Consider B6, for which the IC50 is 0.84 nM.
Regarding B7, the concentration for half-maximal inhibition (IC50) is 2.9 nM.
In turn, B8 had an IC50 of 1.1 nM.
B9 gave an IC50 of 1.2 nM.
In turn, B10 had an IC50 of 4.3 nM.
In turn, B11 returned an IC50 of 3 nM.
Consider B12, for which the IC50 came to 1.1 nM.
Regarding B13, the IC50 amounted to 2.8 nM.
In the case of B14, the half-inhibitory concentration (IC50) was 1.98 nM.
Still for that read-out and setting: to B15 belongs 0.98 nM; to B16, 3.5 nM.
Molecule B17 gave an IC50 of 9.5 nM.
Regarding B18, the IC50 worked out at 1.2 nM.
B19 came in with a half-inhibitory concentration (IC50) of 2.4 nM.
As to B20, the IC50 came out at 1.9 nM.
B21 gave an IC50 of 1.46 nM.
For B22, the IC50 was 1.2 nM.

A further assay deals with T2, cloned human SRIF receptor SSTR5 (human, UniProt P35346 1-364).
T2 construct: whole, on cells; assayed as cryostat sections of membrane pellets of the transfected cells; also called hSSTR5
T2 sequence (P35346 whole entry): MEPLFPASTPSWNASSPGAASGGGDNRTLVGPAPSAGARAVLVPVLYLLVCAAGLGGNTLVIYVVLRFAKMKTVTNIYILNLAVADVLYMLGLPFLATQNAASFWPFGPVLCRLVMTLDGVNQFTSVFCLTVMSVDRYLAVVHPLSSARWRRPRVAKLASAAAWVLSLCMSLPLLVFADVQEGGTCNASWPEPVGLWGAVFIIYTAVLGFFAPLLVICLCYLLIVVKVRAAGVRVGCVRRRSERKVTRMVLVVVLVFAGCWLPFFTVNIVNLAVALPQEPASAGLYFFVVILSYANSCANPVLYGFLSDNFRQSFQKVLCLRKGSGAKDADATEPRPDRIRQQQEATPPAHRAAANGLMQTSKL
The description is as above. As to the method:
as §1, §2
Molecule B3 gave an IC50 of 30 nM.
With B5, the IC50 was 668 nM.
In turn, B6 yielded an IC50 of 633 nM.
For B7, the IC50 stood at 610 nM.
B10 yielded an IC50 of 110 nM.
For B11, the IC50 amounted to 557 nM.
Take B12: the IC50 was found to be 240 nM.
As for B13, the IC50 stood at 360 nM.
Regarding B15, the IC50 is 199 nM.

The next assay deals with T3, cloned human SRIF receptor SSTR1 (human, UniProt P30872 1-391).
T3 construct: whole, on cells; also called hSSTR1
T3 sequence (P30872 whole entry): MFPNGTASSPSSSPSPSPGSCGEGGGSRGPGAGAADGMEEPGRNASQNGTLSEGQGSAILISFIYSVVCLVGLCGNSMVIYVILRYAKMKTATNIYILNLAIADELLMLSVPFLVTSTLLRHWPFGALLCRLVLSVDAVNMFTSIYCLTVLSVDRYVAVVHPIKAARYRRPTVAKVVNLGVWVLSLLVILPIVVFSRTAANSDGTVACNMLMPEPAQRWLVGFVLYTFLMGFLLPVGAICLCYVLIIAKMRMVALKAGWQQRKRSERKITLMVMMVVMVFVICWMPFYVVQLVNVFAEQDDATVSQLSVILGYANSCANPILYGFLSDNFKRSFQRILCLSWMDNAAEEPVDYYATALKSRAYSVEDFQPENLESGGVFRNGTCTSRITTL
The assay is described as above. Here is the method: as §1, §2
B3 returned an IC50 of 450 nM.
In turn, B7 showed an IC50 of approximately 1100 nM.
With B8, the IC50 was determined as 330 nM.
With B9, the IC50 worked out at 213 nM.
Turning to B11, the IC50 came out at 757 nM.
In turn, B12 registered an IC50 of 327 nM.
Molecule B18 displayed an IC50 of 347 nM.
B20 came in with an IC50 of 270 nM.
Still for that read-out and setting: in the case of B21 it was 650 nM; in that of B22, 517 nM.

In the next assay the target is T4, cloned human SRIF receptor SSTR3 (human, UniProt P32745 1-418).
T4 construct: whole, on cells; assayed as cryostat sections of membrane pellets of the transfected cells; also called hSSTR3
T4 sequence (P32745 whole entry): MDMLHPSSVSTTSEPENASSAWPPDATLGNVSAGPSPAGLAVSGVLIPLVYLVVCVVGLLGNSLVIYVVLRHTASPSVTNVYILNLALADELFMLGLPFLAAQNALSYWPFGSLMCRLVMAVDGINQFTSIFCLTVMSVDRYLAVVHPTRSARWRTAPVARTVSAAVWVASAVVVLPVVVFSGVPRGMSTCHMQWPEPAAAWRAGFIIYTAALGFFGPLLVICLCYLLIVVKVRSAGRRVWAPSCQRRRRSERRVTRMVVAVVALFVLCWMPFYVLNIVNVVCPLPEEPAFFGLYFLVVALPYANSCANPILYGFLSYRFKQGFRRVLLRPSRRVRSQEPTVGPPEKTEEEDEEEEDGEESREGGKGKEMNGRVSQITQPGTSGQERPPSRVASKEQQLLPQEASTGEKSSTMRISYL
The assay is described as above. Here is the method: as §1, §2
The molecule B1 returned an IC50 of 1020 nM.
Same read-out and setting: to B2 belongs 980 nM.
Same read-out and setting: to B3 belongs 271 nM; to B4, 197 nM.
With B5, the IC50 was 664 nM.
B6: the IC50 turned out to be 750 nM.
B7: the IC50 was determined as 630 nM.
The same measure, in the same setting: in the case of B8 it was 347 nM.
B13 returned an IC50 of 825 nM.
B14 registered an IC50 of 621 nM.
B15 gave an IC50 of 897 nM.
Turning to B18, the IC50 stood at 210 nM.
As to B19, the IC50 was determined as 326 nM.
Regarding B20, the IC50 was 135 nM.
The same measure, in the same setting: to B21 belongs 780 nM; to B22, 263 nM.

A further assay deals with T5, cloned human SRIF receptor SSTR2 (human, UniProt P30874 1-369).
T5 construct: whole, on cells; assayed as cryostat sections of membrane pellets of the transfected cells; also called hSSTR2
T5 sequence (P30874 whole entry): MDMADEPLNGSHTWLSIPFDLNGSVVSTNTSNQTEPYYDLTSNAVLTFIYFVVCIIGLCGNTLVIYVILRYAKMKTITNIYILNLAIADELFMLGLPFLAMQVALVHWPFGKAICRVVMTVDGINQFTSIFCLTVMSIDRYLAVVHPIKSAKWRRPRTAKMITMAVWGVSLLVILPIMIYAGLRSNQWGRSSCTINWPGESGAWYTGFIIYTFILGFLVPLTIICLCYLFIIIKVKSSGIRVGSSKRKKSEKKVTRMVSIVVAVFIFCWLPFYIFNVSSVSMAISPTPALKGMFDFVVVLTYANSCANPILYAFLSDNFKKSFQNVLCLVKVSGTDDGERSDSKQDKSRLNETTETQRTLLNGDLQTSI
The description is as above. Here is the method:
as §1, §2
Consider B2, for which the IC50 was found to be 700 nM.
On the same count and under the same terms, to B3 belongs 71 nM.
Same read-out and setting: to B4 belongs 118 nM; to B5, 339 nM; to B6, 807 nM.
B8 had an IC50 of 57 nM.
B9 registered an IC50 of 347 nM.
The same measure, in the same setting: to B10 belongs 227 nM; to B12, 170 nM.
Turning to B13, the IC50 came out at 194 nM.
The molecule B14 registered an IC50 of 622 nM.
In turn, B15 returned an IC50 of 183 nM.
As for B18, the IC50 was determined as 550 nM.
Consider B19, for which the IC50 is 259 nM.
On to B20, for which the IC50 is 260 nM.
Consider B22, for which the IC50 was 56 nM.
